This assay deals with F-actin (filamentous actin), actin purified from chicken breast (Gallus gallus) (chicken (Gallus gallus)), P68139. Put plainly: co-sedimentation. The note with it: remark: other sources report otherwise.

In general, Kd refers to the concentration at which binding is half-saturated. A lower Kd goes with a tighter complex.

B1: Human UTRN-ABD (utrophin actin-binding domain, amino acids 1-261), wild type, P46939 1-261 (domain or fragment)
chain: MAKYGEHEASPDNGQNEFSDIIKSRSDEHNDVQKKTFTKWINARFSKSGKPPINDMFTDLKDGRKLLDLLEGLTGTSLPKERGSTRVHALNNVNRVLQVLHQNNVELVNIGGTDIVDGNHKLTLGLLWSIILHWQVKDVMKDVMSDLQQTNSEKILLSWVRQTTRPYSQVNVLNFTTSWTDGLAFNAVLHRHKPDLFSWDKVVKMSPIERLEHAFSKAQTYLGIEKLLDPEDVAVQLPDKKSIIMYLTSLFEVLPQQVTID
As for B1, the Kd turned out to be 1.8 µM.

Values taken from article PMC7360965.
